Kd data for one molecule are collected here from US20220023420A1 (PRECIGEN, published 2022).

Common to all, as to assay: SPR (Biacore 3000), fusion protein immobilized on CM5, TGF-β injected
The target of one experiment is T1, TGF-β1 (UniProt P01137 279-390).
T1 construct: also called TGF-b1
The protocol: (§1) Surface plasma resonance (SPR) analysis was performed using Biacore3000, CM5 chip, an amine-coupling kit, 10×HBS-P running buffer and Glycine for regeneration (GE Healthcare). […] Dissociation was allowed to proceed followed by a pulse of 10 mM Glycine (pH 1.5) for regeneration of the chip surface.

A further experiment deals with T2, TGF-β2 (UniProt P61812 303-414).
T2 sequence (looked up): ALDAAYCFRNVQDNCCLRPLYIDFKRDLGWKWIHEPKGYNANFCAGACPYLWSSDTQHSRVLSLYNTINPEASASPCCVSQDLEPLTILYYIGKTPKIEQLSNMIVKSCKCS
Here is the method: as §1

In another experiment the target is T3, TGF-β3 (UniProt P10600 301-412).
T3 sequence (looked up): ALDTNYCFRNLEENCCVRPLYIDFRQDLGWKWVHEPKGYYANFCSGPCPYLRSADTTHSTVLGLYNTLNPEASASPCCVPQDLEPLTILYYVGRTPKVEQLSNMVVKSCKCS
Here is the method:
as §1

T1 sequence (P01137 279-390 limits assumed): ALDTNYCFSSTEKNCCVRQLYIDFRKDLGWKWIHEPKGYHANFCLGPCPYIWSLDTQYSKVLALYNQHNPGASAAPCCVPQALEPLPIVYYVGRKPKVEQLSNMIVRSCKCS

B1: Anti-PD-1(VH6-VL5) IgG4-TGFβRII (other)
heavy: QVQLVESGGGVVQPGRSLRLDCKASGITFSNSGMHWVRQAPGKGLEWVAVIWYDGSKRYYADSVKGRFTISRDNSKNTLFLQMNSLRAEDTAVYYCATNDDYWGQGTLVTVSSASTKGPSVFPLAPCSRSTSESTAALGCLVKDYFPEPVTVSWNSGALTSGVHTFPAVLQSSGLYSLSSVVTVPSSSLGTKTYTCNVDHKPSNTKVDKRVESKYGPPCPSCPAPEFLGGPSVFLFPPKPKDTLMISRTPEVTCVVVDVSQEDPEVQFNWYVDGVEVHNAKTKPREEQFNSTYRVVSVLTVLHQDWLNGKEYKCKVSNKGLPSSIEKTISKAKGQPREPQVYTLPPSQEEMTKNQVSLTCLVKGFYPSDIAVEWESNGQPENNYKTTPPVLDSDGSFFLYSRLTVDKSRWQEGNVFSCSVMHEALHNHYTQKSLSLSPGKGGGGSGGGGSIPPHVQKSVNNDMIVTDNNGAVKFPQLCKFCDVRFSTCDNQKSCMSNCSITSICEKPQEVCVAVWRKNDENITLETVCHDPKLPYHDFILEDAASPKCIMKEKKKPGETFFMCSCSSDECNDNIIFSEEYNTSNPD
light: not shown
notes: also called anti-PD-1 IgG4 antibody (VH6-VL5)-TGFβRII fusion protein; VH6-IgG4(wt)-linker-ECD with VL5
In the case of B1, the values for the Kd in the experiment with TGF-β1, in the experiment with TGF-β2 and with TGF-β3 were 5.22 pM, 859 pM and 2.19 pM, respectively.
